The text below walks through data of US20160075746A1 (published 2016).

Primed or numbered codes have the meaning given here. [ ]: non-standard residue; d: D form. The star is where a group is joined. PE = proline (from (4R)-azidoproline) carrying a 1,2,3-triazole-linked chondroitin sulfate E (CS-E) disaccharide; Biotin = O=C1N[C@H]2[C@H](CS[C@H]2CCCCC(=O)*)N1; PEG12″ = not defined here; PEG12′ = PEG12: -

The target of test [1] is nerve growth factor (NGF). Nature of the test: ELISA, glycopeptide on streptavidin plate, NGF 0-60 nM, anti-NGF-HRP detection.
Sequence of nerve growth factor (NGF) (chain, as listed by the source): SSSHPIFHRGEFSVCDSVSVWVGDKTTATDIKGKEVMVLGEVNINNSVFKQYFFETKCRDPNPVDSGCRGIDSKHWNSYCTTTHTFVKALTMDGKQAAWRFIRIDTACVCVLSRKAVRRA
Test [2] concerns the target nerve growth factor (NGF). Nature of the test: cell-based or functional assay.
For test [3], the target named is nerve growth factor (NGF). Kind of test: SPR, glycopeptide immobilised, NGF analyte, two-state model. (In general: In SPR one partner is held on a chip, and binding of the other changes the refractive index at the surface.)
Test [4] has as its target nerve growth factor (NGF). Nature of the test: SPR, two-state model, comparison of KD values with glycopeptide 1.
Test [5] has as its target nerve growth factor (NGF). Nature of the test: SPR, glycopeptide immobilised, NGF analyte, two-state model, kd1.
For test [6], the target named is nerve growth factor (NGF). Kind of test: SPR (Biacore T100), glycopeptide immobilised on streptavidin CM5 chip, NGF 11-185 nM as analyte, two-state model, ka1.

Turning to {Biotin-PEG12″}-P[PE]P[PE]P[PE]P[PE]P[PE]P[PE]P[PE]P[PE]P[PE]P[PE]P[PE]P[PE]-OMe (also called agent 4; (PPE)12) [glycopeptide 4], the “fold increase in NGF binding affinity in comparison to 1” value in test [1] was around 2.6 fold.

B1: glycopeptide 5 (peptide)
peptide: {Biotin-PEG12′}-PP[PE]PP[PE]PP[PE]PP[PE]PP[PE]PP[PE]PP[PE]PP[PE]PP[PE]PP[PE]PP[PE]PP[PE]-OMe
notes: All 12 CS-E disaccharides lie along one face of the PPII helix; also called agent 5; compound 5
As usually defined, the Kd is the concentration at which binding is half-saturated. Usually koff stands for the first-order rate constant of dissociation. The low end stands for a long-lived complex, the high end for a short-lived complex. As usually defined, the kon is a measure of how fast the partners come together. With B1, the “NGF-induced TrkA phosphorylation (Western blot, pTrkA/TrkA ratio) in PC12 cells” value in test [2] was around 40%. Moreover, the affinity in test [3], expressed as Kd, was 137 nM. Besides, the “fold stronger binding to NGF than agent 1 (by KD)” value in test [4] is around 18 fold. In test [5], this molecule yielded a koff of 0.0274 s⁻¹. For the same molecule, the “fold increase in NGF binding as compared to 1” value in test [1] was 4.6 fold. For the same molecule, the kon in test [6] was found to be 46500 M⁻¹ s⁻¹.

B2: glycopeptide 1 (peptide)
peptide: {Biotin-PEG12′}-[PE][PE][PE][PE][PE][PE][PE][PE][PE][PE][PE][PE]-OMe
notes: Immobilised through biotin on streptavidin in ELISA and SPR; also called agent 1; CS-E sulfated glycopeptide 1
As for B2, the Kd in test [3] is 2500 nM. This molecule showed a koff in test [5] of 0.0322 s⁻¹. For the same molecule, the kon in test [6] is 1950 M⁻¹ s⁻¹.
